Our source for the protein production values is a protein production outcome set (Wang et al. 2014).
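Note: failed if final PepcDB status was selected cloned or expressed and not failed if soluble or beyond.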

A short description of the series: label from the status in PepcDB records.
Take “KRYIRKEAADALKTMFDAAKKEGYELAAVSGYRSYDRQKVIFDNEVSLKGERKAKEAVAYPGESEHQTGLAMDISSRSNGFELNEAFGSTADGKWVQDNAYKYGFIIRYPKNKEDITKYEYEPWHLRYVGK”: the protein production result is “not failed”.
For “KSEIGKYAPFFSLPNAKGEKITRSSDAFKQKSLLINFWASWNDSISQKQSNSELREIYKKYKKNKYIGMLGISLDVDKQQWKDAIKRDTLDWEQVCDFGGLNSEVAKQYSIYKIPANILLSSDGKILAKNLRGEELKKKIENIVEEA”, the protein production result is reported as “not failed”.
“KSEKRMKLTLKGGAAVDPDSGLEHSAHVLEKGGKVFSATLGLVDIVKGTNSYYKLQLLEDDKENRYWIFRSWGRVGTVIGSNKLEQMPSKEDAIEHFMKLYEEKTGNAWHSKNFTKYPKKFYPLEI”: the protein production entry is on record as “not failed”.
In the case of “KSPVREPVDNLSPEERDARTVFCMQLAARIRPRDLEDFFSAVGKVRDVRIISDRNSRRSKGIAYVEFCEIQSVPLAIGLTGQRLLGVPIIVQASQAEKNRL”, the protein production entry was “not failed”.
With “KTFAALGSGVIGSGWIARALAHGLDVVAWDPAPGAEAALRARVANAWPALRKQGLAPGAAQERLRFVASIEECVGDADFIQESAPERLDLKLDLHARISAAARPDVLIGSSTSGLLPSEFYAEASHPERCLVGHPFNPVYLLPLVEVVGGERTAAEAVRAAMRVYESLGMRPLHVRKEVPGFIADRLLEALWREALHLVNDGVATTGEIDDAIRFGAGLRWSFMGTFLTYTLAGGNAGMRHFMAQFGPALQLPWTYLPAPELTEALIDRVVEGTAEQQGARSIAELERYRDDCLLAVLGAIRETKARHGFA”, the protein production result is “failed”.
Take “KTPIQVLHEYGMKTKNIPVYECERSDVQIHVPTFTFRVTVGDITCTGEGTSKKLAKHRAAEAAINILKANA”: the protein production entry is given as “not failed”.
In the case of “KVKSGWLDKLSPQGKRMFQKRWVKFDGLSISYYNNEKEMYSKGIIPLSAISTVRVQGDNKFEVVTTQRTFVFRVEKEEERNDWISILLNALKSQSLTSQSQA”, the protein production entry is “not failed”.
The entry for “KVVFAKEQPAHREVQAEAGASATLSCEVAQAQTEVTWYKDGKKLSSSSKVRVEAVGCTRRLVVQQAGQAEAGEYSCEAGGQQLSFRLQVAGQCFG” is “not failed”; for “LAAESQADYLGFIFAESKRKVSPEDVKKWLNQVRVEKQVAGVFVNESIETMSRIAKSLKLDVIQLHGDEKPADVAALRKLTGCEIWKALHHQDNTTQEIARFKDNVDGFVIDSSVKGSRGGTGVAFSWDCVPEYQQAAIGKRCFIAGGVNPDSITRLLKWQPEGIDLASGIEKNGQKDQNLMRLLEERMNRYVSISE” it is “failed”.
In the case of “LAPPRHLGFSDVSHDAARVFWEGAPRPVRLVRVTYVSSEGGHSGQTEAPGNATSAMLGPLSSSTTYTVRVTCLYPGGGSSTLTGRVTTKKAPSPS”, the protein production entry is “not failed”.
The entry for “LDDLSEFVDQVPLLDHHCHFLIDGKVPNRDDRLAQVSTEADKDYPLADTKNRLAYHGFLALAKEFALDANNPLAAMNDPGYATYNHRIFGHFHFKELLIDTGFVPDDPILDLDQTAELVGIPVKAIYRLETHAEDFMLEHDNFAAWWQAFSNDVKQAKAHGFVGFKSIAAYRVGLHLEPVNVIEAAAGFDTWKHSGEKRLTSKPLIDYMLYHVAPFIIAQDMPLQFHVGYGDADTDMYLGNPLLMRDYLKAFTKKGLKVVLLHCYPYHREAGYLASVFPNLYFDISLLDNLGPSGASRVFNEAVELAPYTRILFASDASTYPEMYGLAARQFKQALVAHFNQLPFVDLAQKKAWINAICWQTSAKLYHQERELRV” is “not failed”; for “LEDFNVTSKVIELDVRKPTPEAAENLNIGMDEDIYYVKRVRYINGQTLCYEESYYTKSIVTYLNNEIVSHSIFHYIREGLGLKIGFSDLFLHVGQLNEEEAEYLGLEAGLPKLYIESIFHLTNGQPFDYSKISYNYEQSQFVVQANSFLL” it is “failed”.
The entry for “LESSMNKFHALFDSVMDACVIIDKRGVIKECNAALQTLLGVEDKTALVGTSLTQFHLADTFMGSAVQIAQSVEDVLKQGLLKFEADITDSQGQSIPAEVTLKSIELNTERFVLATYHNLAERRLVDRLIRHERNLLKNVLGMSPIGVWVCVNGTCRYVNAQMTLM” is “failed”; for “LGTLFFSLEYNFERKAFVVNIKEARGLPAMDEQSMTSDPYIKMTILPEKKHKVKTRVLRKTLDPAFDETFTFYGIPYTQIQELALHFTILSFDRFSRDDIIGEVLIPLSGIELSEGKMLMNREII” it is “not failed”.
For the sequence “LKKAGGALIAGVLKNGPADDAGIKPGDVLVAVNGKPIFNSSEMLNMVASLAPGKSATLTILRHGGQQDIQVRIGKRPS”, the protein production result is listed as “failed”.
To “LLADGQLQDWHDSTVYEIYHHWRHRYPKGVFENREHLFSAEIPRDTPIALQPEEHVSYGWFDMEEAAEKVFSPSNRRAILELGRFLGKR” belongs “failed”; to “LLHGDFELAVPGGPVAAYYAAPAGREQLPIVLVVQEIFGLHEHIKDVCRRLAHDGYLAVSVNLYQRQGDASRYDNIPGLVAELVSKVPDEQVHADLDASLAWAAAHGGDGARVGVTGFCWGGRTTWMYAARNPAVKAGVAWYGRLSSGHGPLIKQVPLDVAGSLHAPVLGLYGGKDESIPLDDVRAMEARLQQGGAPAQASRIVVYPQAGHAFLADYRPSYRAADAQDGWRRMLDWFALYL”, “not failed”; to “LLLEIGLEEMPARFLNESMVQLGDKLTGWLKEKNITHGEVKLFNTPRRLAVFVKDVAEKQDDIKEEAKGPAKKIALDADGNWTKAAIGFSKGQGANVEDLYIKEVKGIEYVFVQKFQAGQETKSLLPELSGLITSLHFPKNMRWGNEDLRYIRPIKWIVALFGQDVIPFSITNVESGRTTQGHRFLGHEVSIESPSAYEEQLKGQHVIADPSVRKQMIQSQLETMAAENNWSIPVDEDLLDEVNHLVEYPTALYGSFESEFLSIPEEVLVTTMKEHQRYFPVKDKNGDLLPHFITVRNGNSHAIENVARGNEKVLRARLSDASFFYKEDQKLNIDANVKKLENIVFHEELGSLADKVRRVTSIAEKLAVRLQADEDTLKHVKRAAEISKFDLVTHMIYEFPELQGIMGEKYARMLGEDEAVAAAVNEHYMPRSAGGETPSTFTGAVVAMADKLDTIASFFSIGVIPTGSQDPYGLPRQASGIVAILLDRNWGISFEELLTFVQTDKENELLDFFTQRLKYVLNAEQIRHDVIDAVLESSELE”, “not failed”.
To “LNHVAEELCAATNESEVFSIITRSASHIISAQRISYCVPNYKDKCFEIRSVFSENEVMKSATVDMENSALQFVLQSGSPQFFENLAVTNFTDHLILSKNGLCSGWSVPVRVKGEIVGLLNAASNVKINERAQQLGVIKMLSGIMGVTLSRVNLQEQLEHQ” belongs “failed”.
In the case of “LNKEGEVERLLGINMDMTEVKQLNEALFQEKERLHITLDSIGEAVVCIDMAMKITFMNPVAEKMSGWTQEEALGVPLLTVLHITFGDNGPLMENIYSADTSRSAIEQDVVLHCRSGGSYDVHYSITPLSTLD”, the protein production result was “failed”.
Turning to “LQTALARLGQWGILSRDLYGFFDQATELIRTALGVDYCGLWELLPNRSALVLCAGDGWDKALVGNYTIDATNRSYAGYTIQHNGDRRMEDYEPIVELDLRISTKFRASPLLHNLGIVSGINLMVAGPRTAFGVLGVYSLTARKFTEEEIEFLKVASHILAAAIDRQEYEERLLLLQQAIDASS”, the protein production entry is on record as “failed”.
For “LQTLCDILRADPADSRTLTELGREIGASDRTLSRLFRSELGMTFPQWRTQLRLHHALVLLADSTPVTAVAHLCGWSSASAFIDAFRRTFGHTPGARPRD”, the protein production result is given as “failed”.
In the case of “LQTSRDLLSSVLSSSLDGIIVFSAIRSAGDTIADFECVLVNPQAEKLFESTAEDIVGMRLREDMPRQEEKGLFEAYREVVETGEPAEMEVHYDTDGQDVWFQVMAVKVENGVAVTYRDITDRKEAERQIREQAQLLDKA”, the protein production entry is “failed”.
In the case of “LRESEARFRMMADTSPIMLWVADQDKKMTFVNQSWLEFRGATLAEESGNGYLEGIHPDDKGHYLGVYSQAFGDRRRFELEYRYRRVDQQYRWIVNVGVPRYLEDGKFMGYVGSCLDITDRKQAQDILQKKLNQILLMRKISQEIRRSLQPTLIFQTAARQVGNVFAVSRCLIHNYSEATTLQVPVVAEYLGGQFTSLLAGEIAVEQAYDPTIIQGDRAMAVVDLDQDLNSTHTKAFYQRFQVKSFLAVRTSYQGKANGIIALHQCDRQRVWTADEIELLEAIAEQMGIALAQAALLEKERERRRELAQKNLELEKATWAAEAANRAKGEFLAMMSHEIRTPMNGVIGMT”, the protein production result is listed as “failed”.
On to “LRESEARLKGIAGNVPGLVFRLERDPAEGDLEFPYISEGSEALVGYAPSEIQHPQMGLRNLVHPEDRADYHRVQDLALASDQDWSWQGRILTRQGEQRWADIKASARHLGNGQVVWDGVVWDITQGKRAELALAKSQEQLRELSAHLESVREEEKARIAREVHDELGQM”, for which the protein production entry is given as “not failed”.
Consider “LRESKRFIEQVISHSPQLLYIFEPTTGSNIYLNGQSVDILGYTPEEIKARGVKFFLDVLHPDDLYLLERNLNYWQNAADGEVLTTEWRMKHKNGSWRWLRSRDVVFARDENHFPCKVLGTTQDITDSKLAELE”, for which the protein production entry is listed as “failed”.
With “LTECLSQGEDIRLSKILIFAGTTEGRKLSEHLCKRGIEHTVCVATEYGEIVLHENPFAHVHMGRMDSEGMRSFFAEQKCKLIVDATHPYAAIVTENIKQAVYAFNEAHAVTDNQADSSISENIEYVRLKRDTDISADYDNIRYFEDNEACAKALNNTDGNILLTTGSKELSVYCKTSDVRERLYVRVLPGLESISLCMHNDITGKHILALQGPFSTQLNEALIDQYDIRCLVTKKSGAAGGFIEKIAAAKNKNIPVYIVGQSVQDDGMSFEAVCEYIDSKYNKLHIMLAGIGMGNDACMTKAVSDAIESADIILGASRMIEKYSAKIDKKPYYLAEQIIPYLYEICADTAKISNVLILFSGDTGFYSGSRKLYLAIKNEISEGKLNADVSILPGISSVSYMAAAVGETYNDAYICSIHGVKLSNITSRISHHAKTFMLMSGVRDVNMLGHLLSSDERYGLQKCSVTVGYQLSYPDENISQLSPQECTKLKREGLYICMIKNPNPVAKNVTPQLSDAAFIREKVPMTKEEIRHVSICKLHLKSDSVLYDVGSGTGSIAVEAASLSDDMEVYAIEQKENAVQLITKNKEKHGLENIHVINAKAPDGMENLPVPTHAFIGGSSGNLKEIIEALKAKNPHIRIVINAISMETICEIKEIMSAYNVKNEDIVQLQVSRSKQIGHYHLMQAENPVWICSFEF”, the protein production result was “failed”.
Take “MAAAAAAAAAAGAAGGRGSGPGRRRHLVPGAGGEAGEGAPGGAGDYGNGLESEELEPEELLLEPEPEPEPEEEPPRPRAPPGAPGPGPGSGAPGSQEEEEEPGLVEGDPGDGAIEDPELEAIKARVREMEEEAEKLKELQNEVEKQMNMSPPPGNAGPVIMSIEEKMEADARSIYVGNVDYGATAEELEAHFHGCGSVNRVTILCDKFSGHPKGFAYIEFSDKESVRTSLALDESLFRGRQIKVIPKRTNRPGISTTDRGFPRARYRARTTNYNSSRSRFYSGFNSRPRGRVYRGRARATSWYSPY”: the protein production entry is reported as “failed”.
“MAAAGAPDGMEEPSMDTEAEAVATEAPARPLNCVEAEAVVGTAAEDSCDARGNLQPAPAQPPGDPAAQASVSNGEDAGGGAGRELVDLKIIWNKTKHDVKVPLDSTGSELKQKIHSITGLPPAMQKVMYKGLVPEDKTLREIKVTSGAKIMVVGSTINDVLAVNTPKDAAQQDAKAEESKKEPLCRQKQHRKVLDKGKPEDVMPSVKGAQERLPTVPLSGMYNKSGGKVRLTFKLEQDQLWIGTKERTEKLPMGSIKNVVSEPIEGHEDYHMMAFQLGPTEASYYWVYWVPTQYVDAIKDTVLGKWQYF”: the protein production entry is listed as “failed”.
